Data reported in publication PMC4895442, “Geometrical assembly of ultrastable protein templates for nanomaterials” (Nature Communications, 2016).

What was measured:
[1] = molecular target: TERM-foldon three-way connector (Methanocaldococcus jannaschii | bacteriophage T4) (UniProt P10104); assay: SDS-PAGE without heating; refolded three-way connector dialyzed against PBS, SDS loading buffer added, incubated at 25-100 °C for 5 min, 10-20% gradient SDS-PAGE; the foldon trimer resists SDS
[2] = molecular target: the molecule itself; assay: negative-stain TEM; proteins refolded together at varying molar ratios, diluted in PBS to 20 μg/ml, on carbon/formvar grids, 2% uranyl acetate

Molecule: TERM-foldon three-way connector (from UniProt P10104 2-81)
- stoichiometry N [1]: 3

B1: γ-prefoldin (γPFD), wild type (natural protein, Methanocaldococcus jannaschii, UniProt Q58064 1-147, looked up)
chain: MVNEVIDINEAVRAYIAQIEGLRAEIGRLDATIATLRQSLATLKSLKTLGEGKTVLVPVGSIAQVEMKVEKMDKVVVSVGQNISAELEYEEALKYIEDEIKKLLTFRLVLEQAIAELYAKIEDLIAEAQQTSEEEKAEEEENEEKAE
notes: γ-prefoldin (γPFD), filamentous prefoldin-family chaperone of the hyperthermophile Methanocaldococcus jannaschii; wild type; Assembles into filaments of variable length through the β-sheets X1 and X2; also called γPFD filaments; γPFD subunits
- binding result [2]: binds
